Experimental data published in publication PMC12802937 (Nucleic Acids Research, 2026).

Experiments:
Details in all cases: both partners purified
[1] = target: T1, Bre1-LR (Bre1 residues 227–700, LBD and RING domains), 6× histidine tag (budding yeast, UniProt Q07457 227-700); experiment: ITC; Lge1-CT (50–60 μM) injected into Bre1-LR (15 μM); 25°C, 20 mM TRIS (pH 7.5), 200 mM sodium chloride
T1 construct: two Bre1 polypeptides form the dimeric coiled-coils of the LBD in the crystal structure; also called WT; source: E. coli BL21 Rosetta (DE3), purified (Ni-NTA, heparin, gel filtration)
T1 sequence (looked up): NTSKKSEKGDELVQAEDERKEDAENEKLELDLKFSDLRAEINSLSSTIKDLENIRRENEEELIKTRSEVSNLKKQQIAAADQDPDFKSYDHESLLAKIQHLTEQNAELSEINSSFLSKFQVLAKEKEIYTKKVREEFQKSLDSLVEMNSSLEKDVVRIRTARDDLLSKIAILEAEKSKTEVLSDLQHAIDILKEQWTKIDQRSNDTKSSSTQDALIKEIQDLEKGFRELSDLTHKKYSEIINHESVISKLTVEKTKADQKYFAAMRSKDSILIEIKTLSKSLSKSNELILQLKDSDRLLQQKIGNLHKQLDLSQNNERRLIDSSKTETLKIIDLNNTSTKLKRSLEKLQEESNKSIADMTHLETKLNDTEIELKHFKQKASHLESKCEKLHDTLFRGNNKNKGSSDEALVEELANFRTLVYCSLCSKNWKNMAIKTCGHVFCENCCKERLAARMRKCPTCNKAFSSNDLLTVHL

[2] = target: T2, Bre1-LR K534E (budding yeast, UniProt Q07457 227-700, K534E); experiment: as above
T2 construct: source: E. coli BL21 Rosetta (DE3), purified (Ni-NTA, heparin, gel filtration)
T2 sequence (looked up): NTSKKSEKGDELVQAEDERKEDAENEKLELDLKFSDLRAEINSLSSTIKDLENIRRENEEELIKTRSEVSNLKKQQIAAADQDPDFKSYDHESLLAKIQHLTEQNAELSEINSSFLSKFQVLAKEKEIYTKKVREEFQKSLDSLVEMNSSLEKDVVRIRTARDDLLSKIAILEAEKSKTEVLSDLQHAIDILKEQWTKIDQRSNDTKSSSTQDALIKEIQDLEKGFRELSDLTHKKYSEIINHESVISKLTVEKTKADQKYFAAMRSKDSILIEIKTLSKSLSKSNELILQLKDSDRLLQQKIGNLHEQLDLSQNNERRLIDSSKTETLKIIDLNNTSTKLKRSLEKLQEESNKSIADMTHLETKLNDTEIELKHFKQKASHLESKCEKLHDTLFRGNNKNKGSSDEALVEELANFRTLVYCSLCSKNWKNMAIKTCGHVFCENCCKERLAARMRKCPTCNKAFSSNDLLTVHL

[3] = target: T3, Bre1-LR V382N (budding yeast, UniProt Q07457 227-700, V382N); experiment: as above
T3 construct: source: E. coli BL21 Rosetta (DE3), purified (Ni-NTA, heparin, gel filtration)
T3 sequence (looked up): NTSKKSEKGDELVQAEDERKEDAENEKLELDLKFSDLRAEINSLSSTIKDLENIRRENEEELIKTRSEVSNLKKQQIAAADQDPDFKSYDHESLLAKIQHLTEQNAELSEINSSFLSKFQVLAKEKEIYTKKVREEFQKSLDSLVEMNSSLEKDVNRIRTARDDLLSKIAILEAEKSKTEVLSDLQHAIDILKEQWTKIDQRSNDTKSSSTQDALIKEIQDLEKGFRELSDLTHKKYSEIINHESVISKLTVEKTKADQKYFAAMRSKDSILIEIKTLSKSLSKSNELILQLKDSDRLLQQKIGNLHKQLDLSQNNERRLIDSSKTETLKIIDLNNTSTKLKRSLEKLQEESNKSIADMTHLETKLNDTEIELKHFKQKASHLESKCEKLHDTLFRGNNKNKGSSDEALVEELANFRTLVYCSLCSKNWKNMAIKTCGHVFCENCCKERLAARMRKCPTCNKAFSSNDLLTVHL

[4] = target: T4, Bre1-LR A489N (budding yeast, UniProt Q07457 227-700, A489N); experiment: as above
T4 construct: source: E. coli BL21 Rosetta (DE3), purified (Ni-NTA, heparin, gel filtration)
T4 sequence (looked up): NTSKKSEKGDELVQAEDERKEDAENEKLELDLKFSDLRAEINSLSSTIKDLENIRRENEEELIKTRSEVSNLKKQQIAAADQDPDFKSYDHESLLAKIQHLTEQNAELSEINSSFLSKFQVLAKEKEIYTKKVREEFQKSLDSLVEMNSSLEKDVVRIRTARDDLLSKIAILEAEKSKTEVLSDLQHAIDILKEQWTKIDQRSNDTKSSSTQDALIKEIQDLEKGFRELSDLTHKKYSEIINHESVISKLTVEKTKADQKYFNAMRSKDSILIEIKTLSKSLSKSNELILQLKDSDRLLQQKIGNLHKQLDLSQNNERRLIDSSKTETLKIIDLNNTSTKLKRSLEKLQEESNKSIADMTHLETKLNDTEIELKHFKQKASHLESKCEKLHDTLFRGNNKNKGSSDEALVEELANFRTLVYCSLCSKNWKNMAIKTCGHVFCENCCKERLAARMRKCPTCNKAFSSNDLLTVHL

[5] = target: T1, Bre1-LR (Bre1 residues 227–700, LBD and …); experiment: ITC; Lge1-CT (50–60 μM) injected into Bre1-LR (15 μM); 25°C, 20 mM TRIS (pH 7.5), 300 mM sodium chloride

Kd [1]: 24.5 ± 4.5 nM
dH [1]: -50.5 ± 1 kcal/mol
stoichiometry N [1]: 0.396 ± 0.003
Kd [2]: 36.9 ± 14.5 nM
dH [2]: -33.9 ± 2.1 kcal/mol
stoichiometry N [2]: 0.469 ± 0.008
Kd [3]: 61.2 ± 14.4 nM
dH [3]: -53.1 ± 1.7 kcal/mol
stoichiometry N [3]: 0.378 ± 0.005
Kd [4]: 154 ± 55 nM
dH [4]: -52.1 ± 3.6 kcal/mol
stoichiometry N [4]: 0.375 ± 0.012
Kd [5]: 2.7 ± 1.7 nM
dH [5]: -38.8 ± 0.6 kcal/mol
stoichiometry N [5]: 0.318 ± 0.002
B1: Lge1-CT (Lge1 residues 261–332), intein-chitin binding domain (CBD) tag construct (domain or fragment, budding yeast, UniProt Q02796 261-332, looked up)
chain: KNVKKTNNTESECEKAREVFKESDSIDSALEELNLKINSNELELRLLNNQCDKHALNIQLTQEKLDSLLLMQ
notes: Lge1, budding yeast, residues 261-332; residues 268–331 resolved in the electron density; the intein-CBD tag is named on the protein in the pull-down; also called intein-CBD-fused Lge1-CT; intein-CBD-tagged Lge1-CT; source: E. coli BL21 Rosetta (DE3): cleared cell extract on chitin resin (pull-down); purified (chitin, heparin, gel filtration) for ITC and SPR; co-purified with Bre1-LR for the …
